± gives the standard deviation of the averaged measurements.

This data set in a line: total protein half-life in vivo (active degradation + dilution); higher = more stable protein.
The mark [1] stands for this setting: E. coli NCM3722 delta-clpP delta-lon delta-hslV, growth: N-lim chemostat, doubling time 6 h.
Where [2] appears, read: E. coli NCM3722 delta-clpP, growth: N-lim chemostat, doubling time 6 h.
[3] abbreviates: E. coli NCM3722 delta-hslV, growth: N-lim chemostat, doubling time 6 h.
[4] abbreviates: E. coli NCM3722 delta-lon, growth: N-lim chemostat, doubling time 6 h.
Setting [5] is: E. coli NCM3722 delta-smpB, growth: N-lim chemostat, doubling time 6 h.
Where [6] appears, read: wild type E. coli NCM3722, growth: C-lim chemostat, doubling time 3 h.
The mark [7] stands for this setting: wild type E. coli NCM3722, growth: C-lim chemostat, doubling time 6 h.
Where [8] appears, read: wild type E. coli NCM3722, growth: C-lim chemostat, doubling time 12 h.
Setting [9] is: wild type E. coli NCM3722, growth: N-lim chemostat, doubling time 6 h.
The mark [10] stands for this setting: wild type E. coli NCM3722, growth: N-lim chemostat, doubling time 12 h.
Setting [11] is: wild type E. coli NCM3722, growth: P-lim chemostat, doubling time 6 h.
The mark [12] stands for this setting: wild type E. coli NCM3722, growth: P-lim chemostat, doubling time 12 h.

As for “MMKRNILAVIVPALLVAGTANAAEIYNKDGNKVDLYGKAVGLHYFSKGNGENSYGGNGDMTYARLGFKGETQINSDLTGYGQWEYNFQGNNSEGADAQTGNKTRLAFAGLKYADVGSFDYGRNYGVVYDALGYTDMLPEFGGDTAYSDDFFVGRVGGVATYRNSNFFGLVDGLNFAVQYLGKNERDTARRSNGDGVGGSISYEYEGFGIVGAYGAADRTNLQEAQPLGNGKKAEQWATGLKYDANNIYLAANYGETRNATPITNKFTNTSGFANKTQDVLLVAQYQFDFGLRPSIAYTKSKAKDVEGIGDVDLVNYFEVGATYYFNKNMSTYVDYIINQIDSDNKLGVGSDDTVAVGIVYQF”, the “total protein half-life in vivo” value under setting [1] was found to be 5.54 ± 0.65 h; the “total protein half-life in vivo” value under setting [2] was 6.23 ± 0.86 h; the “total protein half-life in vivo” value under setting [3] is 5.98 ± 0.073 h; the “total protein half-life in vivo” value under setting [4] was found to be 6.91 ± 0.67 h; the “total protein half-life in vivo” value under setting [5] came to 5.865 ± 0.041 h; the “total protein half-life in vivo” value under setting [6] is 3.19 ± 0.046 h. The “total protein half-life in vivo” value came to 6.83 ± 0.66 h under setting [7]; 11.12 ± 0.049 h under setting [8]; 5.95 ± 0.26 h under setting [9]; 10.9 ± 0.82 h under setting [10]; 6.15 ± 0.23 h under setting [11].
As to “MYKQAVILLLMLFTASVSAALPARYMQTIENAAVWAQIGDKMVTVGNIRAGQIIAVEPTAASYYAFNFGFGKGFIDKGHLEPVQGRQKVEDGLGDLNKPLSNQNLVTWKDTPVYNAPSAGSAPFGVLADNLRYPILHKLKDRLNQTWYQIRIGDRLAYISALDAQPDNGLSVLTYHHILRDEENTRFRHTSTTTSVRAFNNQMAWLRDRGYATLSMVQLEGYVKNKINLPARAVVITFDDGLKSVSRYAYPVLKQYGMKATAFIVTSRIKRHPQKWNPKSLQFMSVSELNEIRDVFDFQSHTHFLHRVDGYRRPILLSRSEHNILFDFARSRRALAQFNPHVWYLSYPFGGFNDNAVKAANDAGFHLAVTTMKGKVKPGDNPLLLKRLYILRTDSLETMSRLVSNQPQG”, the “total protein half-life in vivo” value is 5.86 ± 0.059 h under setting [1]; 5.98 ± 0.23 h under setting [2]; 5.24 ± 0.3 h under setting [3]; 5.73 ± 0.38 h under setting [5]; 4.78 h under setting [7]; 12.5 h under setting [8]. Also, the “total protein half-life in vivo” value came out at 5.58 ± 0.86 h under setting [9], 11.6 ± 3 h under setting [10], 5.64 h under setting [11] and 12.4 h under setting [12].
For “MSHNVTPNTSRVELRKTLTLVPVVMMGLAYMQPMTLFDTFGIVSGLTDGHVPTAYAFALIAILFTALSYGKLVRRYPSAGSAYTYAQKSISPTVGFMVGWSSLLDYLFAPMINILLAKIYFEALVPSIPSWMFVVALVAFMTAFNLRSLKSVANFNTVIVVLQVVLIAVILGMVVYGVFEGEGAGTLASTRPFWSGDAHVIPMITGATILCFSFTGFDGISNLSEETKDAERVIPRAIFLTALIGGMIFIFATYFLQLYFPDISRFKDPDASQPEIMLYVAGKAFQVGALIFSTITVLASGMAAHAGVARLMYVMGRDGVFPKSFFGYVHPKWRTPAMNIILVGAIALLAINFDLVMATALINFGALVAFTFVNLSVISQFWIREKRNKTLKDHFQYLFLPMCGALTVGALWVNLEESSMVLGLIWAAIGLIYLACVTKSFRNPVPQYEDVA [P0AA47]”, the “total protein half-life in vivo” value under setting [6] came to 0.699 ± 0.063 h.
As to “MATNAKPVYKRILLKLSGEALQGTEGFGIDASILDRMAQEIKELVELGIQVGVVIGGGNLFRGAGLAKAGMNRVVGDHMGMLATVMNGLAMRDALHRAYVNARLMSAIPLNGVCDSYSWAEAISLLRNNRVVILSAGTGNPFFTTDSAACLRGIEIEADVVLKATKVDGVFTADPAKDPTATMYEQLTYSEVLEKELKVMDLAAFTLARDHKLPIRVFNMNKPGALRRVVMGEKEGTLITE [P0A7E9]”, the “total protein half-life in vivo” value under setting [1] turned out to be 4.84 ± 0.3 h; the “total protein half-life in vivo” value under setting [2] turned out to be 5.18 ± 0.45 h; the “total protein half-life in vivo” value under setting [3] was 4.79 ± 0.38 h; the “total protein half-life in vivo” value under setting [4] stood at 5.16 ± 0.34 h; the “total protein half-life in vivo” value under setting [5] is 4.49 ± 0.16 h; the “total protein half-life in vivo” value under setting [6] came to 3.24 ± 0.27 h. Further, the “total protein half-life in vivo” value is, setting by setting: under setting [7], 7 ± 1.2 h; under setting [8], 10.4 ± 1.8 h; under setting [9], 4.93 ± 0.33 h; under setting [10], 8.29 ± 1 h; under setting [11], 5.84 ± 0.27 h; under setting [12], 14.4 ± 0.48 h.
“MEKGTVKWFNNAKGFGFICPEGGGEDIFAHYSTIQMDGYRTLKAGQSVQFDVHQGPKGNHASVIVPVEVEAAVA [P0A968]”: the “total protein half-life in vivo” value by setting is: under setting [1], 2.08 h; under setting [2], 1.11 ± 0.089 h; under setting [3], 0.144 h; under setting [6], 0.333 ± 0.022 h; under setting [7], 0.386 h; under setting [8], 0.224 h.
As for “MKPFLRWCFVATALTLAGCSNTSWRKSEVLAVPLQPTLQQEVILARMEQILASRALTDDERAQLLYERGVLYDSLGLRALARNDFSQALAIRPDMPEVFNYLGIYLTQAGNFDAAYEAFDSVLELDPTYNYAHLNRGIALYYGGRDKLAQDDLLAFYQDDPNDPFRSLWLYLAEQKLDEKQAKEVLKQHFEKSDKEQWGWNIVEFYLGNISEQTLMERLKADATDNTSLAEHLSETNFYLGKYYLSLGDLDSATALFKLAVANNVHNFVEHRYALLELSLLGQDQDDLAESDQQ [P0AFB1]”, the “total protein half-life in vivo” value was determined as 6.43 ± 0.4 h under setting [1]; 6.3 ± 0.2 h under setting [2]; 6.621 ± 0.019 h under setting [4]; 6.66 ± 1.2 h under setting [5]; 3.15 ± 0.24 h under setting [6]; 5.9 ± 0.35 h under setting [7]. Besides, the “total protein half-life in vivo” value worked out at 11.3 ± 0.48 h under setting [8]; 6.12 ± 0.22 h under setting [9]; 13.5 ± 2 h under setting [10]; 7.56 ± 0.19 h under setting [11]; 13.1 ± 0.29 h under setting [12].
As for “MHEIFNMLLAVFDRAALMLICLFFLIRIRLFRELLHKSAHSPKELLAVTAIFSLFALFSTWSGVPVEGSLVNVRIIAVMSGGILFGPWVGIITGVIAGIHRYLIDIGGVTAIPCFITSILAGCISGWINLKIPKAQRWRVGILGGMLCETLTMILVIVWAPTTALGIDIVSKIGIPMILGSVCIGFIVLLVQSVEGEKEASAARQAKLALDIANKTLPLFRHVNSESLRKVCEIIRDDIHADAVAITNTDHVLAYVGVGEHNYQNGDDFISPTTRQAMNYGKIIIKNNDEAHRTPEIHSMLVIPLWEKGVVTGTLKIYYCHAHQITSSLQEMAVGLSQIISTQLEVSRAEQLREMANKAELRALQSKINPHFLFNALNAISSSIRLNPDTARQLIFNLSRYLRYNIELKDDEQIDIKKELYQIKDYIAIEQARFGDKLTVIYDIDEEVNCCIPSLLIQPLVENAIVHGIQPCKGKGVVTISVAECGNRVRIAVRDTGHGIDPKVIERVEANEMPGNKIGLLNVHHRVKLLYGEGLHIRRLEPGTEIAFYIPNQRTPVASQATLLL [P0AA93]”, the “total protein half-life in vivo” value under setting [1] came out at 6.72 h; the “total protein half-life in vivo” value under setting [2] came to 6.87 ± 0.77 h; the “total protein half-life in vivo” value under setting [3] was determined as 6.53 ± 0.56 h; the “total protein half-life in vivo” value under setting [5] worked out at 5.52 ± 0.31 h; the “total protein half-life in vivo” value under setting [6] amounted to 2.84 ± 0.064 h; the “total protein half-life in vivo” value under setting [9] amounted to 5.53 ± 0.67 h. Also, the “total protein half-life in vivo” value under setting [12] stood at 14.8 ± 0.34 h.
With “MKLTDADNAADGIFFPALEQNMMGAVLINENDEVMFFNPAAEKLWGYKREEVIGNNIDMLIPRDLRPAHPEYIRHNREGGKARVEGMSRELQLEKKDGSKIWTRFALSKVSAEGKVYYLALVRDASVEMAQKEQTRQLIIAVDHLDRPVIVLDPERHIVQCNRAFTEMFGYCISEASGMQPDTLLNIPEFPADNRIRLQQLLWKTARDQDEFLLLTRTGEKIWIKASISPVYDVLAHLQNLVMTFSDITEERQIRQLEGNILAAMCSSPPFHEMGEIICRNIESVLNESHVSLFALRNGMPIHWASSSHGAEIQNAQSWSATIRQRDGAPAGILQIKTSSGAETSAFIERVADISQHMAALALEQEKSRQHIEQLIQFDPMTGLPNRNNLHNYLDDLVDKAVSPVVYLIGVDHIQDVIDSLGYAWADQALLEVVNRFREKLKPDQYLCRIEGTQFVLVSLENDVSNITQIADELRNVVSKPIMIDDKPFPLTLSIGISYDLGKNRDYLLSTAHNAMDYIRKNGGNGWQFFSPAMNEMVKERLVLGAALKEAISNNQLKLVYQPQIFAETGELYGIEALARWHDPLHGHVPPSRFIPLAEEIGEIENIGRWVIAEACRQLAEWRSQNIHIPALSVNLSALHFRSNQLPNQVSDAMHAWGIDGHQLTVEITESMMMEHDTEIFKRIQILRDMGVGLSVDDFGTGFSGLSRLVSLPVTEIKIDKSFVDRCLTEKRILALLEAITSIGQSLNLTVVAEGVETKEQFEMLRKIHCRVIQGYFFSRPLPAEEIPGWMSSVLPLKI”, the “total protein half-life in vivo” value by setting is: under setting [1], 5.66 ± 0.45 h; under setting [2], 3.42 ± 0.28 h; under setting [3], 4.21 ± 0.49 h; under setting [4], 3.8 ± 0.26 h; under setting [5], 3.55 ± 0.9 h; under setting [6], 1.63 ± 0.42 h. For the same sequence, the “total protein half-life in vivo” value by setting is: under setting [7], 4.27 ± 0.69 h; under setting [8], 6.85 ± 0.2 h; under setting [9], 4.01 ± 0.26 h; under setting [10], 7.043 ± 0.059 h; under setting [11], 2.56 ± 0.83 h; under setting [12], 4.93 ± 0.014 h.
